± gives the uncertainty stated by the source.
experiment: amyloid nucleation score (Sup35N fusion, yeast selection) (log enrichment); library NNK1; higher = more nucleation; inactive = no reads after selection
Outline: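 Yeast lacking psi expressed peptides of 20 random codons fused to Sup35N, received 100 μM copper sulfate for 24 hours, and were then grown for 7 days at 30°C on medium lacking adenine and uracil. Illumina sequencing of input and output plasmid inserts provided the reads. Nucleation scores are DiMSum log enrichments of output over input, centred on the mode of non-aggregating sequences. Any sequence with under 100 input reads was excluded.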

ISCVICAMIILRWHV and ISEKRISMCGIRNKYIWGHG are within error of each other in amyloid nucleation score: 0.045 ± 0.9 for the first, -0.953 ± 1.1 for the second.

ISFPSSDYGGGSAPVEGWLG and ISGNRSKVWNDGWIRPRYLC are within error of each other in amyloid nucleation score: 0.47 ± 1.2 for the first, 0.679 ± 0.84 for the second.

First: ISINLRLVRHRGWGNISCWR
Second: ISLAVWGFSILLRIADCSMI
The amyloid nucleation score of the first is higher: 2.2 ± 0.33 for the first, 0.123 ± 1.2 for the second.

First: ISLYVSNYRAYDKSPLGEDW
Second: ISNGIYISKEGFHEWSNRH
The amyloid nucleation score of the first is lower: 0.398 ± 0.74 for the first, 4.18 ± 0.064 for the second.

ISQVYGDNTDFVLLVSSDNV and ISRPSSSGRLHVVMTSSNAR are within error of each other in amyloid nucleation score: 0.544 ± 0.33 for the first, 0.421 ± 0.39 for the second.

First: ISTDPWAAHYNRTHIQ
Second: ISTPIDDPKCLGSLVYFHQM
The amyloid nucleation score of the first is higher: 1.98 ± 0.15 for the first, -0.693 ± 0.53 for the second.

Going from ISVGCF to ISWSASLDIDINCQCRGLWG, the amyloid nucleation score rises from 0.201 ± 0.49 to 3.35 ± 0.1.

ISYMHKLCLFSFYLDHKLTL and ISYSLRGSVRR are within error of each other in amyloid nucleation score: -1.49 ± 1.4 for the first, -0.032 ± 0.41 for the second.

Compared with ITCLRSCLLFNFSGCTTSDQ, ITCYGKCYPSRDKL is lower in amyloid nucleation score: 4.11 ± 0.071 for the first, 1.27 ± 0.56 for the second.

ITGPIEGGVTK and ITMNVRSSYGLSVIMIELGL are within error of each other in amyloid nucleation score: -0.118 ± 0.8 for the first, 1.02 ± 0.76 for the second.

Going from ITPDVGSGTFEV to ITPYQQFWLIVDTIGNMMEI, the amyloid nucleation score rises from 0.022 ± 1.1 to 2.07 ± 0.2.

First: ITVRPLPYRPIDVHRYFAQH
Second: IVGSLYLELYSRR
The amyloid nucleation score of the first is lower: 0.77 ± 0.34 for the first, 1.57 ± 0.18 for the second.

IVHMIYWVM and IVIFPFFLVISDLYVVVSLG are within error of each other in amyloid nucleation score: 0.009 ± 0.61 for the first, -0.077 ± 0.53 for the second.

IVKWLMGMHWLMLAHGV and IVLVR are within error of each other in amyloid nucleation score: 0.181 ± 1.4 for the first, -1.21 ± 0.69 for the second.

IVPPLSNCSFIG and IVTCESGCRLKSSRDKCPSR are within error of each other in amyloid nucleation score: -0.293 ± 0.6 for the first, 0.284 ± 0.59 for the second.

Compared with IVVFQGVCTKMLRTDELIWR, IVYTYRVNIVII is higher in amyloid nucleation score: 1.18 ± 0.2 for the first, 7.528 ± 0.044 for the second.

IWCFLI and IWILYLAFIVHKNVLLPRVL are within error of each other in amyloid nucleation score: 0.333 ± 0.55 for the first, 0.123 ± 0.49 for the second.

IWLLGSVHRLDSLVTDCKTS and IWNVTPRGFDSAD are within error of each other in amyloid nucleation score: 1.08 ± 0.63 for the first, -0.345 ± 0.97 for the second.

First: IWYFLCICSLYRLEYHLLDC
Second: IYCHWNGFRGPYVIPRGCVV
The amyloid nucleation score of the first is lower: -0.405 ± 0.25 for the first, 0.819 ± 0.51 for the second.

IYGCTCVDFGLSSNS and IYGTGFIWMFSVPKLERG are within error of each other in amyloid nucleation score: -0.46 ± 0.84 for the first, -0.537 ± 1.1 for the second.

Going from IYNGVTGRYWTSHI to IYNGWQIRGNVNMMLCVCEW, the amyloid nucleation score rises from -0.989 ± 0.7 to 6.568 ± 0.059.

IYNTYPTRRLRLQRGYYSME and IYRSVANSMKVSEYQIPLDS are within error of each other in amyloid nucleation score: -0.607 ± 1.5 for the first, -0.18 ± 0.54 for the second.

IYVYVLSMMCPSEDR and KANPDHIPRRLDYRGSGPSR are within error of each other in amyloid nucleation score: 0.201 ± 0.84 for the first, -0.482 ± 0.94 for the second.

KASDGLSINRGE and KCFRYCKKNSNWLDCRLQIW are within error of each other in amyloid nucleation score: 0.48 ± 0.73 for the first, -1.26 ± 2.1 for the second.

KCLIYGKFIVRCVPINV and KCQIGSMVLSYMVELPGDRD are within error of each other in amyloid nucleation score: -0.088 ± 0.59 for the first, -0.171 ± 0.36 for the second.

KCTENLFRHCIRLEGSTWKF and KCTWTN are within error of each other in amyloid nucleation score: -1.34 ± 2.7 for the first, 0.255 ± 0.87 for the second.

KDALDHHLIMLRGYVVLQS and KDEGLTEVFESWISWGW are within error of each other in amyloid nucleation score: -0.891 ± 0.59 for the first, -0.065 ± 0.9 for the second.

Compared with KDIEYCASMCESCPYMT, KDMDSFSTTCLLLRLRGRTG is lower in amyloid nucleation score: 2.86 ± 0.39 for the first, 0.053 ± 0.35 for the second.

KDRWTCSFVAVCMRYLFAKS and KEGLRDGLLCRYQTCAG are within error of each other in amyloid nucleation score: 0.134 ± 0.46 for the first, 0.091 ± 0.48 for the second.

First: KEIINGCRR
Second: KELPSSSTCLKFS
The amyloid nucleation score of the first is higher: 5 ± 0.1 for the first, -0.155 ± 0.44 for the second.

Going from KESECITS to KFFEFLYKFDPCRRYCRLCQ, the amyloid nucleation score rises from -0.849 ± 0.75 to 0.264 ± 0.36.

Compared with KFNITFVSVKSYKVPLSLDI, KFRMCEFSGAYTYGVFKNLP is lower in amyloid nucleation score: 4.81 ± 0.066 for the first, 0.834 ± 0.26 for the second.

First: KFRSEGWIGCESVIKW
Second: KFSSKFTSG
The amyloid nucleation score of the first is higher: 4.72 ± 0.078 for the first, 0.436 ± 0.37 for the second.

First: KFVYSVGMTLSSGSFSVEIF
Second: KGAIPFSSDCGGLSGLILYC
The amyloid nucleation score of the first is higher: 5.02 ± 0.053 for the first, 0.301 ± 0.54 for the second.

KGANADAYGRGYNAVFMLEW and KGDMWMGPNESWVKVNLYRV are within error of each other in amyloid nucleation score: -1.39 ± 1.2 for the first, 0.039 ± 0.55 for the second.

KGISVTCEGK and KGLGGFLSICNSVVVRQVWR are within error of each other in amyloid nucleation score: 1.24 ± 0.79 for the first, 0.098 ± 0.72 for the second.

Going from KHPEM to KIFERRLSMYRSVSFLSRQC, the amyloid nucleation score falls from 1.43 ± 0.38 to 0.15 ± 0.32.

KIGRGRSNAVLLLAEDVYVG and KIPLNRIAVNASLRQRYCNP are within error of each other in amyloid nucleation score: -0.57 ± 1.2 for the first, 0.122 ± 0.27 for the second.

Compared with KIRVILYVPRVS, KITSEPTKFYMGVCPSRSEL is lower in amyloid nucleation score: 1.76 ± 0.51 for the first, -0.112 ± 0.44 for the second.

Compared with KKRSFLGYFVSLAFYNCYQY, KKSYCYPFPFFSYV is lower in amyloid nucleation score: 2.73 ± 0.075 for the first, 0.423 ± 0.65 for the second.

KKTGVVGVYK and KKVSLRLSSAVILSANSAML are within error of each other in amyloid nucleation score: -1.26 ± 1.1 for the first, -0.258 ± 0.54 for the second.

KLDVSLKKYLD and KLGGFVFGANVCCEDLSYEF are within error of each other in amyloid nucleation score: 0.368 ± 0.31 for the first, 0.984 ± 0.55 for the second.

For KLIFKRSFNRMDLSSLCYFR, the amyloid nucleation score was -0.471 ± 0.39.

With IVMCEAYFK the amyloid nucleation score was “inactive”.
With IWWFSTFVRRRRAAVKVHKA the amyloid nucleation score was “inactive”.

— the supplement of paper PMC12042874
